Source: publication PMC3689539 (Structure (London, England : 1993), 2009)

Molecular target: the molecule itself
Assay: SEC

B1: full length unphosphorylated wild-type MEK6 (natural protein, human, UniProt P52564 1-334, looked up)
chain: MSQSKGKKRNPGLKIPKEAFEQPQTSSTPPRDLDSKACISIGNQNFEVKADDLEPIMELGRGAYGVVEKMRHVPSGQIMAVKRIRATVNSQEQKRLLMDLDISMRTVDCPFTVTFYGALFREGDVWICMELMDTSLDKFYKQVIDKGQTIPEDILGKIAVSIVKALEHLHSKLSVIHRDVKPSNVLINALGQVKMCDFGISGYLVDSVAKTIDAGCKPYMAPERINPELNQKGYSVKSDIWSLGITMIELAILRFPYDSWGTPFQQLKQVVEEPSPQLPADKFSAEFVDFTSQCLKKNSKERPTYPELMQHPFFTLHESKGTDVASFVKLILGD
stoichiometry N: 2
